According to PMC6098094:

Experiments:
Experiment in all cases: two-hybrid; quantitative yeast two-hybrid, para-nitrophenyl-alpha-galactoside assay; interaction strength as percentage of wildtype GAL4BD-UBXD1; three independent experiments with five yeast transformands per condition
[1] = target: Gal4BD-UBXD1ΔPUB
[2] = target: Gal4BD-UBXD1ΔUBX
[3] = target: Gal4BD-UBXD1ΔVIM

- interaction strength as percentage of wildtype GAL4BD-UBXD1 (% of wildtype GAL4BD-UBXD1) [1]: 13.8
- interaction strength as percentage of wildtype GAL4BD-UBXD1 (% of wildtype GAL4BD-UBXD1) [2]: 29.2
- interaction strength as percentage of wildtype GAL4BD-UBXD1 (% of wildtype GAL4BD-UBXD1) [3]: 8.1
Substance: Gal4AD-p97 (from UniProt P55072 1-806) (natural protein)
